Values quoted from earlier work in patent US8840883B2, “Metallo-protein and tocotrienol (MP-T3) compositions with non-protein-type metal chelator and uses thereof” (Naidu LP, priority 2007, dated 2014).

System: macrophages incubated with acetylated low-density lipoproteins (LDL)

B1: bovine milk LF: bi-lobed glycoprotein of the transferrin family of iron-binding metallo-proteins, from bovine milk (protein, UniProt P24627 20-708, looked up)
Lactotransferrin: APRKNVRWCTISQPEWFKCRRWQWRMKKLGAPSITCVRRAFALECIRAIAEKKADAVTLDGGMVFEAGRDPYKLRPVAAEIYGTKESPQTHYYAVAVVKKGSNFQLDQLQGRKSCHTGLGRSAGWIIPMGILRPYLSWTESLEPLQGAVAKFFSASCVPCIDRQAYPNLCQLCKGEGENQCACSSREPYFGYSGAFKCLQDGAGDVAFVKETTVFENLPEKADRDQYELLCLNNSRAPVDAFKECHLAQVPSHAVVARSVDGKEDLIWKLLSKAQEKFGKNKSRSFQLFGSPPGQRDLLFKDSALGFLRIPSKVDSALYLGSRYLTTLKNLRETAEEVKARYTRVVWCAVGPEEQKKCQQWSQQSGQNVTCATASTTDDCIVLVLKGEADALNLDGGYIYTAGKCGLVPVLAENRKSSKHSSLDCVLRPTEGYLAVAVVKKANEGLTWNSLKDKKSCHTAVDRTAGWNIPMGLIVNQTGSCAFDEFFSQSCAPGADPKSRLCALCAGDDQGLDKCVPNSKEKYYGYTGAFRCLAEDVGDVAFVKNDTVWENTNGESTADWAKNLNREDFRLLCLDGTRKPVTEAQSCHLAVAPNHAVVSRSDRAAHVKQVLLHQQALFGKNGKNCPDKFCLFKSETKNLLFNDNTECLAKLGGRPTYEEYLGTEYVTAIANLKKCSTSPLLEACAFLTR
decrease of accumulation of CE in macrophages: more than 80%
